Source: patent US20030100068A1

Biological target: RANK (Receptor Activator of NF-kappa B) on primary murine osteoblasts (murine (primary murine osteoblasts)) (UniProt O35305)
Assay: cell-based or functional assay

Sequence of UniProt O35305 (O35305 31-625): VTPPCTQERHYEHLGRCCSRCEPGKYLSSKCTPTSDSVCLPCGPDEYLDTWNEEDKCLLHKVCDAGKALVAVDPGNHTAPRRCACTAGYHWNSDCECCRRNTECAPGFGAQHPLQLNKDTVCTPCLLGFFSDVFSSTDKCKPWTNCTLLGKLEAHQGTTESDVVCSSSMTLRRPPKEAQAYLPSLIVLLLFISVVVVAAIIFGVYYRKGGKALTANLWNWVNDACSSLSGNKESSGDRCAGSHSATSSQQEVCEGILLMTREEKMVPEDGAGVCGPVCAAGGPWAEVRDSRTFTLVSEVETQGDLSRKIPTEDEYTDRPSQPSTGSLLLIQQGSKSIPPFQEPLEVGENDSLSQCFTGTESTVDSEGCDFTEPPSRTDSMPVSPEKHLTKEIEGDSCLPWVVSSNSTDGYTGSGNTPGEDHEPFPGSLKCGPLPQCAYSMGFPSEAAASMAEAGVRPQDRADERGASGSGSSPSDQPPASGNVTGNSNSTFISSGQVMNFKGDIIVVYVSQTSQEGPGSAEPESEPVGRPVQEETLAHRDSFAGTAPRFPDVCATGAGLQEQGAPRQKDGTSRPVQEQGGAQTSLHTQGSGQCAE

Substance | surface residence or internalization of RANK on primary osteoblasts exposed to 5 nM ligand (confocal microscopy, anti-RANK staining against membrane dye) [h]
cleaved RANKL (GST removed from GST-RANKL with human rhinovirus 3C protease) (ligand) | < 1
GST-RANKL (fusion product of the external domain of RANKL and glutathione S-transferase) (from UniProt P08515) (ligand) | > 1
